Test results taken from the nanobody polyreactivity screen of Harvey et al. (2022).

Test: yeast display, Sf9 membrane polyspecificity reagent, FACS + sequencing; frameworks hold sequencing errors
Summary of the method: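 Using colony PCR, genes from sorted yeast display clones were amplified, then sequenced on MiSeq at 2 × 250 and filtered by CDR length. The clones had been stained with 10% biotinylated, detergent-solubilized Sf9 membrane reagent for 1 hour at 4 °C and sorted by FACS into low and high (top ~1%) gates on anti-HA and streptavidin fluorescence. Polyreactivity labels come from the gate of origin.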
With “QVQLVESGGGLVQAGGSLRLSCAASGSTFSANGMGWYRQAPGKERELVAAISARGGITYYADSVKGRFTISRDNAKNTVYLQMNSVKPEDTAVYYCNQRKYYRSTKYNYWGQGTQVTVSS” the “polyreactivity (PSR sort gate)” value was “high polyreactivity”.
In the case of “QVQLVESGGGLVQAGGSLRLSCAASGSTFSAYAMGWYRQAPGKERELVASNSYSGSSTYYADSVKGRFTISRDNAKNTVYLQMNSLKPEESAVYYCAAVYVRKGTRYGYWGQGTQVTVSS”, the “polyreactivity (PSR sort gate)” value is reported as “high polyreactivity”.
In the case of “QVQLVESGGGLVQAGGSLRLSCAASGSTFSAYVMGWYRQAPVKERELVAAISSIGGSTYYADSVKGRFTISRDNAKNTVYLQMNSLKPEDTAVYYCAAEPPGSTYEGGYWGQGTQVTVSS”, the “polyreactivity (PSR sort gate)” value is reported as “low polyreactivity”.
With “QVQLVESGGGLVQAGGSLRLSCAASGSTFSDYAMGWYRPEPGKERELDATITSTGDTNYADSVKGRFTMSRDNAKTTVYLQMNSLKPEDTAVYYCAAQHKKYGKRGRWNNFGYWGQGTQVTVSS” the “polyreactivity (PSR sort gate)” value was “low polyreactivity”.
For “QVQLVESGGGLVQAGGSLRLSCAASGSTFSDYAMGWYRQAPGKERELVAAISGGGTTDYADSVKGRFTISRDNAKNTVYLQMNSLKPEDTAVYYCNKPVEGSFLPYSYLRFDYWGQGTHVTVSS”, the “polyreactivity (PSR sort gate)” value was “low polyreactivity”.
For “QVQLVESGGGLVQAGGSLRLSCAASGSTFSDYAMGWYRQAPGKERELVAGITETGTTTYYADSVKGRFTISRDNAKNTVYLQMNSLKPEDTAVYYCAAYVVTYYYGTGYYSYDYWGQGTQVTVSS”, the “polyreactivity (PSR sort gate)” value was “low polyreactivity”.
In the case of “QVQLVESGGGLVQAGGSLRLSCAASGSTFSENAMGWYRQAPGKERELVAAISWGGGSTYYADSVKGRFTISRDNAKNTVYLQMNSLKPEDTAVYYCIADVFDDYGYFESDYWGQGTQVTVSS”, the “polyreactivity (PSR sort gate)” value is reported as “low polyreactivity”.
For “QVQLVESGGGLVQAGGSLRLSCAASGSTFSFNAMGWYRQAPGKERELVAAISRSGGRTYYADSVKGRFTISRDNAKNTVYLQMNSLKPEDTAVYYCNKVWFQRSVQPVEYVYWGQGTQVTVSS”, the “polyreactivity (PSR sort gate)” value was “high polyreactivity”.
With “QVQLVESGGGLVQAGGSLRLSCAASGSTFSFNAMGWYRQAPGKERELVAAITYSGGDTYYADSVKGRFTISRDNAKNTVYLQMNSLKPEDTAVYYCAAKIPRPYAMDYWGQGTQVTVSS” the “polyreactivity (PSR sort gate)” value was “low polyreactivity”.
For “QVQLVESGGGLVQAGGSLRLSCAASGSTFSFYAMGVYRQAPGKERELVAAISKSGGRTYYADSVKGRFTISRDNAKYTVYLQMNSLKPEDTAVYYCAARGNGQYVGKYYYWGQGTQVTVSS”, the “polyreactivity (PSR sort gate)” value was “high polyreactivity”.
For “QVQLVESGGGLVQAGGSLRLSCAASGSTFSFYAMGWYRQAPGKERELVAAISRSGGRTYYADSVKGRFTISRDNAKNTVYLQMNSLKPEDTAVYYCAVEVTHYIHYYYWGQGNQVTVSS”, the “polyreactivity (PSR sort gate)” value was “high polyreactivity”.
For “QVQLVESGGGLVQAGGSLRLSCAASGSTFSFYAMGWYRQAPGKERELVAAISRSGGSTFYADSVKGRFTISRDNAKNTVYLQMNSLKPEDTAVYYCAAYGGLQSRYYYWGQGTQVTVSS”, the “polyreactivity (PSR sort gate)” value was “high polyreactivity”.
In the case of “QVQLVESGGGLVQAGGSLRLSCAASGSTFSGNAMGWYRQAPGKERELVAAITSSGGSTYYADSVKGRFTISRDNAKNTVYLQMNSLKPEDTAVYYCAADGQYYYGFDYWGQGTQVTVSS”, the “polyreactivity (PSR sort gate)” value is reported as “high polyreactivity”.
In the case of “QVQLVESGGGLVQAGGSLRLSCAASGSTFSGNARGWDRQAPGKERELVAAISRRGGSTNYADSVKGRFTISRDNAKYTVYLKMNSLKPEDTAVYYCNKGDYRSAYRHIEYGYWGQGTQVTVSS”, the “polyreactivity (PSR sort gate)” value is reported as “low polyreactivity”.
With “QVQLVESGGGLVQAGGSLRLSCAASGSTFSGYAMGWYRLAPGKERELVASISSGGRTTYADSVKGRFTISRDNAKYTVYLQMNSLKPEDTAVSYCANRIRPGYARLYSWGQGTQVTVSS” the “polyreactivity (PSR sort gate)” value was “high polyreactivity”.
With “QVQLVESGGGLVQAGGSLRLSCAASGSTFSGYAMGWYRQAPGKERELVAAITLGGGSTYYADSVKGRFTISRDNAKNTVYLQMNSLKPEDTAVYYCAAGDIYYAEYDYWGQGTQVTVSS” the “polyreactivity (PSR sort gate)” value was “low polyreactivity”.
For “QVQLVESGGGLVQAGGSLRLSCAASGSTFSGYAMGWYRQAPGKERELVAAITSGGGTYYADSVKGRFTISRDNAKNTVYLQMNSLKPEDTAVYYCAADGIARAYVLLDAYDFLYDYWGQGTQVTVSS”, the “polyreactivity (PSR sort gate)” value was “low polyreactivity”.
With “QVQLVESGGGLVQAGGSLRLSCAASGSTFSGYTMGWYRQAPGKEREFVAAISVSGGSTYYADSVKGRFTISRDNAKNTVYLQMNSLKPEDTAVYYCNTVTSGFLSYDYWGQGTQVTVSS” the “polyreactivity (PSR sort gate)” value was “high polyreactivity”.
In the case of “QVQLVESGGGLVQAGGSLRLSCAASGSTFSGYVMGWYRQAPGKERELVAAISSSGGGSTYYADSVKGRFTISRDNAKNTVYLQMNSLKPEDTAVYYCAARNYRKYDYWGQGTQVTVSS”, the “polyreactivity (PSR sort gate)” value is reported as “high polyreactivity”.
For “QVQLVESGGGLVQAGGSLRLSCAASGSTFSHNTMGWYRQAPGKERELVAAISSRGSSTYYADSVKGRFTISRDNAKNTVYLQMNSLKPEDTAVYYCAARYLRGTWAGLGYDYWGQGTQVTVSS”, the “polyreactivity (PSR sort gate)” value was “low polyreactivity”.
With “QVQLVESGGGLVQAGGSLRLSCAASGSTFSHYAMGWYRQATGKERELVAAISKSGGITYYADSVKGRFTISRDNAKNTVYLQMNSLKPEDTAVYYCNARWSWRGTRYDYGYWGQGTQVTVSS” the “polyreactivity (PSR sort gate)” value was “low polyreactivity”.
In the case of “QVQLVESGGGLVQAGGSLRLSCAASGSTFSIYAMGWYRQAPGKERELVAAISFSDASTYYADSVKGRFTISRDNAKNTVYLQMNSLKPEDTAVYYCAAVVGAFKRRFYYWGQGTQVTVSS”, the “polyreactivity (PSR sort gate)” value is reported as “high polyreactivity”.
In the case of “QVQLVESGGGLVQAGGSLRLSCAASGSTFSIYAMGWYRQAPGKERELVADITANGGSTYYADSVKGRFTISRDNAKNTVYLPMNSLKPEDTAVYYCAADAKSFDAVHYDYWGQGTHVTVSS”, the “polyreactivity (PSR sort gate)” value is reported as “low polyreactivity”.
For “QVQLVESGGGLVQAGGSLRLSCAASGSTFSIYARGWYRPAPGKERELVAAISYSDGTTYSADSVKGRFTISRDNAKNTDYVQMNSLKPEDTAVYYCATQQIWTSWYDRFDYWGQGTQVTVSS”, the “polyreactivity (PSR sort gate)” value was “low polyreactivity”.
For “QVQLVESGGGLVQAGGSLRLSCAASGSTFSKNAMGWNRQAPGKERELFAAIRSRGGSTYYADSVKGRFTISRDNAKNTVYLQMNSLKPEDTAVYYCNKVRAYECDYWGQGTKVTVSS”, the “polyreactivity (PSR sort gate)” value was “high polyreactivity”.
For “QVQLVESGGGLVQAGGSLRLSCAASGSTFSKYTMGWYRQAPGKERELVAAISVSVGRTYYADSVKGRFTISRDNAKNTVYLQMNSLKPEDTAVYYCAAAYSGLYYWGQGTQVTVSS”, the “polyreactivity (PSR sort gate)” value was “high polyreactivity”.
With “QVQLVESGGGLVQAGGSLRLSCAASGSTFSLNAIGWFRQAPGKERQLVAAITGRGTRTYYADSVKGRFTLSRDNAKNTVYLQMNSLKPEDTAVYYCAKDYPRGSPYGYNYWGQGTQVTVSS” the “polyreactivity (PSR sort gate)” value was “high polyreactivity”.
For “QVQLVESGGGLVQAGGSLRLSCAASGSTFSLYAMGWYRQAPGKERELVAAINSGTSTYYADSVKGRFTISRDNAKNTVYLQMNSLKPEDTAVYYCAADGYPLQLYNYWGQGTQVTVSS”, the “polyreactivity (PSR sort gate)” value was “low polyreactivity”.
For “QVQLVESGGGLVQAGGSLRLSCAASGSTFSLYAMGWYRQAPGKERELVARISYTDGSTYYADSVKGRFTISRDNAKNTVYLQMNSLKPEDTAVYYCAADAWYSYTLEDYWGQGTQVTVSS”, the “polyreactivity (PSR sort gate)” value was “low polyreactivity”.
With “QVQLVESGGGLVQAGGSLRLSCAASGSTFSLYAMGWYRQSPGKETELVASITWGGGSTYADSVKRLFTISRDNAKNTVYLQMNSLKPEDPAVYYCARKYRYRVLYDFAYDHWGQGTEVTVSS” the “polyreactivity (PSR sort gate)” value was “low polyreactivity”.
In the case of “QVQLVESGGGLVQAGGSLRLSCAASGSTFSLYGMGWYRQAPGKERELVAAIRRSGGRTYYADSVKGRFTISRDNAKNTVYLQMNSLKPEDTAVYYCAKSVPRYYSKSGLAYEFDYWGQGTQVTVSS”, the “polyreactivity (PSR sort gate)” value is reported as “low polyreactivity”.
In the case of “QVQLVESGGGLVQAGGSLRLSCAASGSTFSLYTMGWYRQAPGKERELVAAITWTGGSTYYADSVKGRFTISRDNAKNTVYLQMNSLKPEDTAVYYCAAVSRLTGSRESQLIRSRMYYWGQGTQVTVSS”, the “polyreactivity (PSR sort gate)” value is reported as “high polyreactivity”.
In the case of “QVQLVESGGGLVQAGGSLRLSCAASGSTFSNNTMGWYRQAPGKETELVATIDFNGGSTYYADSVKGRFTISRDNAKNTVYLQMNSLKPEDTAGYYCAAAEYLYTLPYGYWGQGTQVTVSS”, the “polyreactivity (PSR sort gate)” value is reported as “low polyreactivity”.
With “QVQLVESGGGLVQAGGSLRLSCAASGSTFSNNVMGGYIQAPGKERELVAAISSRGGSTYYADSVKGRFTISRDNAKNTVYLQMNSLKPEDTAVYYCAADQWYAFILGYPMVYWGQGTQVTVSS” the “polyreactivity (PSR sort gate)” value was “high polyreactivity”.
For “QVQLVESGGGLVQAGGSLRLSCAASGSTFSNYAMGWYRQAPGKERELVASISNGGSTNYADSVKGRFTISRDNAKNTVYLQMNSLKPEDTAVYNCNAESKAKYDYWGQGTQVTVSS”, the “polyreactivity (PSR sort gate)” value was “low polyreactivity”.
With “QVQLVESGGGLVQAGGSLRLSCAASGSTFSPYAMGWYRQAPGKEMDFVAAITSSGGSTYYADSVKGRFTISRDNAKNTVYLQMNSLKPEDTALYYFAAEGYYTSTYDLFDYYYWGQGTQVTVSS” the “polyreactivity (PSR sort gate)” value was “low polyreactivity”.
With “QVQLVESGGGLVQAGGSLRLSCAASGSTFSQNAMGWYRQAPGKERELVDAITSGGITYYADSVKGRFTISRDNAKNTVYLQMNSLKPEDTAVYYCNADAIVSPYRLWTVTYYYWGQGTQVTVSS” the “polyreactivity (PSR sort gate)” value was “low polyreactivity”.
For “QVQLVESGGGLVQAGGSLRLSCAASGSTFSRNAMGWYRQAPGKEREFVAAISTSGDSTYYADSVKGRFTISRDNAKNTVYLQMNSLKPEDTAVYYCADDGFWIAYQEGDYWGQGTQVTVSS”, the “polyreactivity (PSR sort gate)” value was “low polyreactivity”.
For “QVQLVESGGGLVQAGGSLRLSCAASGSTFSRNAMGWYRQAPGKERELVAAISRRGGSTYYADSVKGRFTISRDNAKNTVYLQMNSLKPEDTAVYYCNRDSSYKNNYDYWGQGTQVTVSS”, the “polyreactivity (PSR sort gate)” value was “high polyreactivity”.
In the case of “QVQLVESGGGLVQAGGSLRLSCAASGSTFSRYAMGWSRQAPGKERELVAAISSSGGSTYYADSVKGRFTISRDNAKNTVYLQMNSLKPEDTAVYYCAARIWRTRRYDYWGQGTQVTVSS”, the “polyreactivity (PSR sort gate)” value is reported as “high polyreactivity”.
In the case of “QVQLVESGGGLVQAGGSLRLSCAASGSTFSRYAMGWSRQAPGKERELVAAISWSGGSTYYAVSVKGRFTISRDNAKNTVYLQMISLKPEDTAVYYCAAYTYSFRANHDYWGQGTQVTVSS”, the “polyreactivity (PSR sort gate)” value is reported as “high polyreactivity”.
For “QVQLVESGGGLVQAGGSLRLSCAASGSTFSRYAMGWYRQAPGKERELVAAISGSGGSTSYADSVKGRFTISRDNAKNTVYLQMNSLKPEDTAVYYCAAYYLWYSRAFDYWGQGTQVTVSS”, the “polyreactivity (PSR sort gate)” value was “high polyreactivity”.
In the case of “QVQLVESGGGLVQAGGSLRLSCAASGSTFSRYAMGWYRQAPGKERELVAAISSSGGSTYYADSVKGRFTISRDTAKNTVYLQMNSLKPEDTAVYYCAVSHKYYGRRDYWGQGTQVTVSS”, the “polyreactivity (PSR sort gate)” value is reported as “high polyreactivity”.
